Measured values: US20220135679A1 (GREEN CROSS, published 2022)

Molecular target: T1, recombinant human GPNMB (human, UniProt Q14956 23-498)
T1 construct: also called GPNMB purified from HEK293 cells; GPNMB antigen
T1 sequence: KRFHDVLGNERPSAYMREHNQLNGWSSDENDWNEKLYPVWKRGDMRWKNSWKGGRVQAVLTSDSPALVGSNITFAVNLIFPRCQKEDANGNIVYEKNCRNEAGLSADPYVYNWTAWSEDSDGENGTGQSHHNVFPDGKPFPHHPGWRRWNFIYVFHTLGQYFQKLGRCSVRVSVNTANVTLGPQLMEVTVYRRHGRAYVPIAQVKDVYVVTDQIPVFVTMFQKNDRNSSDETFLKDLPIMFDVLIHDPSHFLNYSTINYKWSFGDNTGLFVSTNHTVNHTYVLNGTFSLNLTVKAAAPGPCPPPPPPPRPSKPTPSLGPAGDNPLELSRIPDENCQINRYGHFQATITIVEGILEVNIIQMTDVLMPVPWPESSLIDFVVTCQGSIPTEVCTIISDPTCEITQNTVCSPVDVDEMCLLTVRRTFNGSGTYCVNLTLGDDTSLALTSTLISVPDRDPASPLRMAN
Assay: SPR, Biacore T-200; GPNMB amine-coupled on CM5 chip, bispecific antibody as analyte at 0.078 to 5 nM
Procedure: Quantitative binding capacity (affinity) of the purified bispecific antibody to recombinant human GPNMB was measured using Biacore T-200 (GE Healthcare, USA) that is a biosensor. GPNMB purified from HEK293 cells was fixed on a CM5 chip (GE Healthcare) using an amine-carboxyl reaction until 200 Rmax was obtained. Next, the GPNMB/CD3 bispecific antibody, which was serially diluted in HBS-EP buffer (10 mM HEPES, pH 7.4, 150 mM NaCl, 3 mM EDTA, 0.005% Surfactant P20), was allowed to bind thereto in a concentration range of 0.078 nM to 5 nM for 120 seconds, and flowed at a flow rate of 30 μL/min for 1800 seconds so that dissociation was achieved. Dissociation of the antibody bound to GPNMB was induced by flowing 10 mM glycine-HCl (pH 1.5) for 30 seconds at a flow rate of 30 μL/min (Table 2). The affinity was obtained as kinetic rate constants (Kₒₙ and Koff) and equilibrium dissociation constant (KD) using Biacore T-200 Evaluation Software (Table 3).

B1: GPNMB (SEQ ID NO: 35)/A15 (SEQ ID NO: 36) bispecific antibody (bispecific antibody, human IgG1, lambda, L234A L235A)
chain 1: not shown
chain 2: QAVVTQEPSLTVSPGGTVTLTCRSSTGAVTTSNYANWVQQKPGQAPRGLIGGTNKRAPWTPARFSGSLLGGKAALTLSGAQPEDEAEYYCALWYSNLWVFGGGTKLTVLGQPKANPTVTLFPPSSEELQANKATLVCLISDFYPGAVTVAWKADGSPVKAGVETTKPSKQSNNKYAASSYLSLTPEQWKSHRSYSCQVTHEGSTVEKTVAPTECSGGGSGGGSEGGGSEGGGSEGGGSEGGGSGGGSGEVQLVESGGGLVQPGGSLKLSCAASGFTFNTYAMNWVRQASGKGLEWVGRIRSKYNNYATYYADSVKDRFTISRDDSKNTAYLQMNSLKTEDTAVYYCVRHGNFGNSYVSWFAYWGQGTLVTVSSASTKGPSVFPLAPSSKSTSGGTAALGCLVKDYFPEPVTVSWNSGALTSGVHTFPAVLQSSGLYSLSSVVTVPSSSLGTQTYICNVNHKPSNTKVDKKVEPKSCDKTHTCPPCPAPEAAGGPSVFLFPPKPKDTLMISRTPEVTCVVVDVSHEDPEVKFNWYVDGVEVHNAKTKPREEQYNSTYRVVSVLTVLHQDWLNGKEYKCKVSNKALPAPIEKTISKAKGQPREPRVYTLPPCRDELTKNQVSLTCLVKGFYPSDIAVEWESNGQPENNYKTTPPVLVSDGSFTLYSKLTVDKSRWQQGNVFSCSVMHEALHNHYTQKSLSLSPG
notes: Expressed in Expi293F cells, then purified by Protein A and size exclusion; also called anti-GPNMB/anti-CD3 bispecific antibody; GPNMB/CD3 bispecific antibody
- Kd: 1.1 nM
